What all share (assay type): biochemical, Aspergillus flavus
Series [1] concerns O=c1[nH]c(=O)c2[nH]c(=O)[nH]c2[nH]1. Put plainly: Michaelis-Menten kinetics, RasU_D8. Conditions: other: role: substrate; RasU_D8 (SEQ ID NO: 236); pH 10.5; 25.0 °C. An excerpt: (§1) Select Aspergillus flavus uricase variants RasU_D12, as well as its subvariants RasU_D12-A56T, and RasU_D12-W160E; and RasU_D8, as well as its subvariants RasU_D8-T33V, RasU_D8-Y65H, RasU_D8-W160E, RasU_D8-A209N, and RasU_D8-T210K were subject to further characterization by comparing their expression yields, Michaelis-Menten kinetics parameters, and thermostability measured by temperatures at which 50% of normal activity was lost determined by heat stress activity assay, with those of the wild type Aspergillus flavus uricase. As the names of the subvariants indicated, the subvariants of RasU_D12 were constructed by introducing an additional amino acid substitution A56T or W160E into the RasU_D12 variant, while the subvariants of RasU_D8 were constructed by introducing an additional amino acid substitution T33V, Y65H, W160E, A209N, or T210K into the RasU_D8 variant. Each of the additional amino acid substitutions was to address residual T cell epitopes in the RasU_D8 or RasU_D12 variant. The expression yields were determined as described above in the “Methods” section. The determination of the Michaelis-Menten kinetics parameters kcat and KM, and the heat stress activity assay were likewise performed using the methods described in Example 1. […]

Series [2] has the same test system. Put plainly: Michaelis-Menten kinetics, RasU_D8-A209N. The settings on record: other: role: substrate; RasU_D8-A209N (SEQ ID NO: 272); pH 10.5; 25.0 °C.
Source text: as §1

Series [3] shares this test system. Put plainly: Michaelis-Menten kinetics, RasU_D8-T33V. The settings on record: other: role: substrate; RasU_D8-T33V (SEQ ID NO: 269); pH 10.5; 25.0 °C.
Source text: as §1

For series [4] the test system is unchanged. Put plainly: Michaelis-Menten kinetics, RasU_D8-T210K. Conditions: other: role: substrate; RasU_D8-T210K (SEQ ID NO: 273); pH 10.5; 25.0 °C.
Source text: as §1

Series [5] has the same test system. Put plainly: Michaelis-Menten kinetics, RasU_D8-W160E. Conditions: other: role: substrate; RasU_D8-W160E (SEQ ID NO: 271); pH 10.5; 25.0 °C.
Source text: as §1

For series [6] the test system is unchanged. Briefly: Michaelis-Menten kinetics, RasU_D8-Y65H. Conditions: other: role: substrate; RasU_D8-Y65H (SEQ ID NO: 270); pH 10.5; 25.0 °C.
Source text: as §1

The test system is the same in series [7]. Put plainly: Michaelis-Menten kinetics, RasU_D12. Conditions: other: role: substrate; RasU_D12 (SEQ ID NO: 229); pH 10.5; 25.0 °C.
Source text: as §1

The test system is the same in series [8]. Briefly: Michaelis-Menten kinetics, RasU_D12-A56T. Conditions: other: role: substrate; RasU_D12-A56T (SEQ ID NO: 267); pH 10.5; 25.0 °C.
Source text: as §1

The test system is the same in series [9]. Put plainly: Michaelis-Menten kinetics, RasU_D12-W160E. The settings on record: other: role: substrate; RasU_D12-W160E (SEQ ID NO: 268); pH 10.5; 25.0 °C.
Source text: as §1

From US20260308536A1, “NOVEL URICASE VARIANTS AND METHODS OF USE THEREOF” (priority 2023, published 2026) come the findings set out here.

Turning to “Aspergillus flavus uricase variant RasU_D8 (Aspergillus flavus; A230N/A241D/A97K/E42N/I83E/N101D/S148D/V54N)”, in series [1], the Km was determined as 900 ± 200 µM and the turnover number (kcat) stood at 0.8 ± 0.1 s⁻¹.
As to “Aspergillus flavus uricase variant RasU_D8-A209N (Aspergillus flavus; A210N/A230N/A241D/A97K/E42N/I83E/N101D/S148D/V54N)”, in [2], the Km amounted to 1100 ± 300 µM and the kcat was determined as 1.1 ± 0.1 s⁻¹.
Turning to “Aspergillus flavus uricase variant RasU_D8-T33V (Aspergillus flavus; A230N/A241D/A97K/E42N/I83E/N101D/S148D/T34V/V54N)”, in series [3], the Michaelis constant (Km) is 3000 ± 1000 µM and the catalytic constant (kcat) came to 1.6 ± 0.5 s⁻¹.
With “Aspergillus flavus uricase variant RasU_D8-T210K (Aspergillus flavus; A230N/A241D/A97K/E42N/I83E/N101D/S148D/T211K/V54N)”, in series [4], the Km worked out at 3000 ± 2000 µM and the turnover number (kcat) is 2.0 ± 0.7 s⁻¹.
Turning to “Aspergillus flavus uricase variant RasU_D8-W160E (Aspergillus flavus; A230N/A241D/A97K/E42N/I83E/N101D/S148D/V54N/W161E)”, in series [5], the Michaelis-Menten constant (Km) amounted to 600 ± 200 µM and the catalytic constant (kcat) is 1.2 ± 0.2 s⁻¹.
Turning to “Aspergillus flavus uricase variant RasU_D8-Y65H (Aspergillus flavus; A230N/A241D/A97K/E42N/I83E/N101D/S148D/V54N/Y66H)”, in series [6], the Km came out at 3000 ± 1000 µM and the kcat was found to be 1.7 ± 0.5 s⁻¹.
Take “Aspergillus flavus uricase variant RasU_D12 (Aspergillus flavus; A230N/A241D/A97K/E42N/I83E/N101D/S148D/T211K)”: in series [7], the Km was 400 ± 100 µM and the kcat was determined as 1.3 ± 0.1 s⁻¹.
As to “Aspergillus flavus uricase variant RasU_D12-A56T (Aspergillus flavus; A230N/A241D/A57T/A97K/E42N/I83E/N101D/S148D/T211K)”, in [8], the Michaelis-Menten constant (Km) turned out to be 1500 ± 600 µM and the catalytic constant (kcat) amounted to 1.4 ± 0.3 s⁻¹.
On to “Aspergillus flavus uricase variant RasU_D12-W160E (Aspergillus flavus; A230N/A241D/A97K/E42N/I83E/N101D/S148D/T211K/W161E)”, for which, in [9], the Km was 1700 ± 1000 µM and the kcat amounted to 1.7 ± 0.5 s⁻¹.

The term Km denotes the concentration of substrate that gives half-maximal velocity. As usually defined, the kcat is the maximal rate divided by the concentration of active sites.
